Measured values: publication PMC8514580, “Insight into the interaction between the RNA helicase CGH-1 and EDC-3 and its implications” (Scientific Reports, 2021)
Where a chain is given by its changes, count along the chain named. Numbers in names are those of the source. Where two headings read alike, the source gives them in different places. No end group written: not given here.

How the values were obtained:
CGH-1_248-420^F355A = CGH-1_248-420^F355A (Caenorhabditis elegans, UniProt Q95YF3, F355A); settings: ITC, 20 °C, pH 7.5, 150 mM NaCl, CGH-1 F355A
Procedure: Expression plasmids regarding CGH-1 and CAR-1 were constructed as previously described. In brief, the cDNA fragments encoding CGH-1 RecA2 (residues 248–420), CAR-1 FDF-TFG (residues 184–268) were amplified by PCR from C. elegans genome library and cloned into the NdeI and XhoI site of a modified pET-28a (Novagen) vector (p28a), in which a thrombin protease cleavage site was removed.
CGH-1 protein expression and purification were performed described as in our most recent paper. In brief, proteins were expressed in E. coli Gold (DE3) strain (Novagen). […] Cells were resuspended in Buffer A (20 mM Tris–HCl, pH 7.5, 1 M NaCl), and then lysed using high pressure at 4 °C. Proteins were initially purified by Ni-chelating resin (Qiagen), and further purified by size exclusion chromatography (SEC) on a Superdex 75 column (GE healthcare) in Buffer A. The purified proteins were dialyzed into Buffer B (20 mM Tris–HCl, pH 7.5, 150 mM NaCl).
A peptide containing the C. elegans EDC-3 FDF fragment (residues 235–271) and PATR-1 fragment (residues 30–67) were synthesized from GL Biochem (Shanghai, China) Co., Ltd, respectively. Stock solutions of peptide were prepared in Buffer B described above, and were adjusted to pH 7.5 ± 0.02 for subsequent experiments.
ITC assays were performed as previously described. In brief, it was carried out on a MicroCal PEAQ-ITC (Malvern) at 20 °C with the following settings: reference power, 5 μcal/s; initial delay, 60 s; stir speed, 750 rpm; spacing time, 120 s. Proteins (or its mutants) and peptides were adjusted to 0.05 mM and 0.5 mM, respectively. Experiments were initialed by injection of 1 μl each of peptide into the sample cell (200 μl) filled with protein (or its mutants) solution, followed by 18 injections of 2 μl. The ITC data were fitted with a one-binding-site model using the Origin analysis software.

CGH-1_(248–420) R393A = molecular target: T1, CGH-1_(248–420) R393A (C. elegans, UniProt Q95YF3 248-420, R393A); experiment: ITC; ligand (peptide or CAR-1 fragment, 0.5 mM) injected into CGH-1_(248-420) or mutant (0.05 mM) in the cell; 20 °C; Buffer B (20 mM Tris-HCl pH 7.5, 150 mM NaCl); one-binding-site model; settings: both partners purified
T1 construct: Mutant of m1 made with the MutanBEST kit; source: E. coli Gold (DE3), purified (Ni-chelating resin, SEC Superdex 75)
T1 sequence (looked up): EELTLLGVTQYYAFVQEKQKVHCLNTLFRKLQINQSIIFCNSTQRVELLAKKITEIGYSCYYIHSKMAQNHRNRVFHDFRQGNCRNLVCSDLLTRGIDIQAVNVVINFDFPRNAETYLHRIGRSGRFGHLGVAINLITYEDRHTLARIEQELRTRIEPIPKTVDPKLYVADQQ

[1] = molecular target: T2, CGH-1_(248–420) 4A mutant (His269, Cys270, Thr273 and Leu274 to Ala) (C. elegans, UniProt Q95YF3 248-420, His269 to Ala | Cys270 to Ala | Thr273 to Ala | Leu274 to Ala); experiment: as above; settings: both partners purified
T2 construct: Mutant of m1 made with the MutanBEST kit; also called four-alanine mutant; source: E. coli Gold (DE3), purified (Ni-chelating resin, SEC Superdex 75)
T2 sequence (looked up): T1 sequence (looked up) with H22A, C23A, T26A, L27A, A146R

CGH-1_(248–420) H269A = molecular target: T3, CGH-1_(248–420) H269A (C. elegans, UniProt Q95YF3 248-420, H269A); experiment: as above; settings: both partners purified
T3 construct: Mutant of m1 made with the MutanBEST kit; source: E. coli Gold (DE3), purified (Ni-chelating resin, SEC Superdex 75)
T3 sequence (looked up): T1 sequence (looked up) with H22A, A146R

CGH-1_(248–420) K277A = molecular target: T4, CGH-1_(248–420) K277A (C. elegans, UniProt Q95YF3 248-420, K277A); experiment: as above; settings: both partners purified
T4 construct: Mutant of m1 made with the MutanBEST kit; source: E. coli Gold (DE3), purified (Ni-chelating resin, SEC Superdex 75)
T4 sequence (looked up): T1 sequence (looked up) with K30A, A146R

CGH-1_(248–420) F261A = molecular target: T5, CGH-1_(248–420) F261A (C. elegans, UniProt Q95YF3 248-420, F261A); experiment: as above; settings: both partners purified
T5 construct: Mutant of m1 made with the MutanBEST kit; source: E. coli Gold (DE3), purified (Ni-chelating resin, SEC Superdex 75)
T5 sequence (looked up): T1 sequence (looked up) with F14A, A146R

CGH-1_(248–420) E396A = molecular target: T6, CGH-1_(248–420) E396A (C. elegans, UniProt Q95YF3 248-420, E396A); experiment: as above; settings: both partners purified
T6 construct: Mutant of m1 made with the MutanBEST kit; source: E. coli Gold (DE3), purified (Ni-chelating resin, SEC Superdex 75)
T6 sequence (looked up): T1 sequence (looked up) with A146R, E149A

[2] = molecular target: T7, CGH-1_(248–420) wild type (CGH-1 RecA2 domain) (C. elegans, UniProt Q95YF3 248-420); experiment: as above; settings: both partners purified
T7 construct: Cloned into NdeI/XhoI of a modified pET-28a in which the thrombin cleavage site was removed; also called CGH-1_248-420^WT; source: E. coli Gold (DE3), purified (Ni-chelating resin, SEC Superdex 75)
T7 sequence (looked up): T1 sequence (looked up) with A146R

CGH-1_(248–420) Q266A = molecular target: T8, CGH-1_(248–420) Q266A (C. elegans, UniProt Q95YF3 248-420, Q266A); experiment: as above; settings: both partners purified
T8 construct: Mutant of m1 made with the MutanBEST kit; source: E. coli Gold (DE3), purified (Ni-chelating resin, SEC Superdex 75)
T8 sequence (looked up): T1 sequence (looked up) with Q19A, A146R

CGH-1_(248–420) K277E = molecular target: T9, CGH-1_(248–420) K277E (C. elegans, UniProt Q95YF3 248-420, K277E); experiment: as above; settings: both partners purified
T9 construct: Mutant of m1 made with the MutanBEST kit; source: E. coli Gold (DE3), purified (Ni-chelating resin, SEC Superdex 75)
T9 sequence (looked up): T1 sequence (looked up) with K30E, A146R

human HA-tagged DDX6 = settings: Co-immunoprecipitation, YFP-tagged PATL1 mutants; cited from earlier work

CGH-1_248-420^F355A, sequence (Q95YF3 248-420 F355A): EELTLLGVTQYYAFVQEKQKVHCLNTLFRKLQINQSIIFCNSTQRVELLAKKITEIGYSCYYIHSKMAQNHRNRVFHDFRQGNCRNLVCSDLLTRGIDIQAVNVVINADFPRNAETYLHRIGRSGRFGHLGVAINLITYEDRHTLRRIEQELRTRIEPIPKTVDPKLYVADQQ

In the case of “SDEDHNIFDDEFDAANDETFGGGLDNIGENAELENYAT [PATR-1_30–67]”, the “KD / binding (in words)” value (CGH-1_248-420^F355A) is reported as “almost abolished the binding”, the “KD / binding (in words)” value (CGH-1_248-420^F355A; listed as CePATR-1_30–67) is reported as “almost abolishes the binding” and the “KD / binding (in words)” value (CGH-1_248-420^F355A; listed as PATR1 30-67) is reported as “No binding”. For the same molecule, the “KD / binding (in words)” value (CGH-1_248-420^F355A; listed as PATR-1 peptide) was “undetectable binding”.

B1: EDC-3 FDF peptide (EDC-3_(235–271)) (peptide)
peptide: LADPIDFDLDSDFDFAENLKLFEKDENDDQYYETVEK
notes: Enhancer of decapping-3 (EDC-3, also called LSm16), C. elegans, FDF fragment, residues 235-271; Printed with free NH2 and COOH ends; also called EDC-3 peptide; EDC-3 FDF-FEK peptide; source: synthetic peptide (GL Biochem, Shanghai)
In the case of B1, the Kd (CGH-1_(248–420) R393A) is reported as 2.07 ± 0.28 µM, the dH (CGH-1_(248–420) R393A) is reported as -17.3 ± 0.47 kcal per mol and the “stoichiometry N” value (CGH-1_(248–420) R393A) is reported as 0.99. The Kd [1] was 8.75 ± 3.64 µM, the dH [1] was -5.94 ± 0.89 kcal per mol and the “stoichiometry N” value [1] was 0.79. For the same molecule, the Kd (CGH-1_(248–420) H269A) was 2.55 ± 0.32 µM, the dH (CGH-1_(248–420) H269A) was -12.5 ± 0.34 kcal per mol and the “stoichiometry N” value (CGH-1_(248–420) H269A) was 1.03. The Kd (CGH-1_(248–420) K277A) was 2.74 ± 0.34 µM, the dH (CGH-1_(248–420) K277A) was -15.2 ± 0.47 kcal per mol and the “stoichiometry N” value (CGH-1_(248–420) K277A) was 1.22. The Kd (CGH-1_(248–420) F261A) was 1.16 ± 0.24 µM, the dH (CGH-1_(248–420) F261A) was -14.1 ± 0.48 kcal per mol and the “stoichiometry N” value (CGH-1_(248–420) F261A) was 1.09. For the same molecule, the Kd (CGH-1_(248–420) E396A) was 0.85 ± 0.11 µM, the dH (CGH-1_(248–420) E396A) was -16.1 ± 0.31 kcal per mol and the “stoichiometry N” value (CGH-1_(248–420) E396A) was 1. The dH [2] was -17.6 ± 0.09 kcal per mol, the “stoichiometry N” value [2] was 1.07 and the Kd (CGH-1_(248–420) Q266A) was 1.75 ± 0.38 µM. The dH (CGH-1_(248–420) Q266A) was -12.1 ± 0.51 kcal per mol, the “stoichiometry N” value (CGH-1_(248–420) Q266A) was 1.1 and the Kd (CGH-1_(248–420) K277E) was 5.97 ± 0.51 µM. The dH (CGH-1_(248–420) K277E) was -11.5 ± 0.3 kcal per mol and the “stoichiometry N” value (CGH-1_(248–420) K277E) was 1.12.

B2: YFP-tagged PATL1 W46A: substitution of Trp46 to Ala in the YFP-tagged PATL1 (protein, UniProt Q86TB9 1-770, looked up, variant W46A)
Protein PAT1 homolog 1: MFRYESLEDCPLDEDEDAFQGLGEEDEEIDQFNDDTFGSGAVDDDAQEAHERLAELEEKLPVAVNEQTGNGERDEMDLLGDHEENLAERLSKMVIENELEDPAIMRAVQTRPVLQPQPGSLNSSIWDGSEVLRRIRGPLLAQEMPTVSVLEYALPQRPPQGPEDDRDLSERALPRRSTSPIIGSPPVRAVPIGTPPKQMAVPSFTQQILCPKPVHVRPPMPPRYPAPYGERMSPNQLCSVPNSSLLGHPFPPSVPPVLSPLQRAQLLGGAQLQPGRMSPSQFARVPGFVGSPLAAMNPKLLQGRVGQMLPPAPGFRAFFSAPPSATPPPQQHPPGPGPHLQNLRSQAPMFRPDTTHLHPQHRRLLHQRQQQNRSQHRNLNGAGDRGSHRSSHQDHLRKDPYANLMLQREKDWVSKIQMMQLQSTDPYLDDFYYQNYFEKLEKLSAAEEIQGDGPKKERTKLITPQVAKLEHAYKPVQFEGSLGKLTVSSVNNPRKMIDAVVTSRSEDDETKEKQVRDKRRKTLVIIEKTYSLLLDVEDYERRYLLSLEEERPALMDDRKHKICSMYDNLRGKLPGQERPSDDHFVQIMCIRKGKRMVARILPFLSTEQAADILMTTARNLPFLIKKDAQDEVLPCLLSPFSLLLYHLPSVSITSLLRQLMNLPQSAATPALSNPHLTAVLQNKFGLSLLLILLSRGEDLQSSDPATESTQNNQWTEVMFMATRELLRIPQAALAKPISIPTNLVSLFSRYVDRQKLNLLETKLQLVQGIR
modifications: YFP tag
For B2, the “interaction with DDX6” value (human HA-tagged DDX6) is listed as “impaired the interaction”.

B3: CAR-1 FDF-TFG (CAR-1_(184–268)) (domain or fragment, C. elegans, UniProt Q9XW17 184-268, looked up)
chain: LKFESDFDFEKANEKFQEVLVDNLEKLNIEDKAEPEVEEKKDAAFYDKKTSFFDNISCESLEKAEGKTGRPDWKKERETNQETFG
notes: thrombin site of the vector removed; also called CAR-1_184-268^WT; recombinant CAR-1_(184–268) protein; source: recombinant; plasmid in modified pET-28a
For B3, the Kd [2] was 3.03 ± 0.21 µM, the dH [2] was -27 ± 0.43 kcal per mol and the “stoichiometry N” value [2] was 0.89.
